Results from article PMC11139201, “RsaL is a self‐regulatory switch that controls alternative biosynthesis of two AHL‐type quorum sensing signals in Pseudomonas aeruginosa PA1201”.
Numbering of substitutions follows the chain as printed.

B1: PRO-II (dsDNA)
DNA 1: AAATGAGATAGATTTCGGTGAACCCGGACCCTTGCTAGGCTCGAAGAAACGTCCGAAAAGATCAGAGCAATGGCTTCACACGAG
DNA 2: CTCGTGTGAAGCCATTGCTCTGATCTTTTCGGACGTTTCTTCGAGCCTAGCAAGGGTCCGGGTTCACCGAAATCTATCTCATTT
B2: PRO-II-p (dsDNA)
DNA 1: B1 DNA 1 with A12G, T13C, T14C, T15C
DNA 2: B1 DNA 2 with A70G, A71G, A72G, T73C

Target: RsaL (Pseudomonas aeruginosa PA1201, UniProt Q9X7H4 1-80)
Test: EMSA; EMSA: 10 mM Tris-HCl pH 8.0, 1 mM EDTA, 5 mM MgCl2, 50 mM KCl, 2.5% glycerol, 30 ug/ml poly(dI-dC), 0.05% NP-40, room temperature 20 min; footprint: 100 ng probe in 40 ul, 30 min room temperature, DNase I 1 min 25 C
Settings: protein: recombinant, tags: His (pET28a), chain copies: 2

Binder | binding result (label: Cy5) | binding result
B1 | binds | 
B2 |  | no binding
